For assay [1], the target named is Recombinant human CPP32 protein with a C-terminal 6His tag, (p17p12)2 tetramer (human) (UniProt P42574). Kind of assay: cell-based or functional assay.
Assay [2] concerns the target CPP32 P12 subunit + Leu + Glu + 6 His (human) (UniProt P42574). Kind of assay: analysis of the purified protein (SDS-PAGE, RP-HPLC, MALDI-TOF MS, N-terminal sequence and amino acid analysis).

The results in this text go back to patent US20030138840A1.

Turning to “Ac-Asp-Val-Ala-Asp-fluoromethylketone (peptide)”, the enzyme inhibited (CPP32 protease activity) in assay [1] came to 99.9%.

B1: CPP32 P17 subunit (enzyme, human, UniProt P42574 29-175, looked up)
chain: SGISLDNSYKMDYPEMGLCIIINNKNFHKSTGMTSRSGTDVDAANLRETFRNLKYEVRNKNDLTREEIVELMRDVSKEDHSKRSSFVCVLLSHGEEGIIFGTNGPVDLKKITNFFRGDRCRSLTGKPKLFIIQACRGTELDCGIETD
B1: the molar ratio in assay [2] stood at 1 mol/mol.
